Measured values published in paper PMC5752674, “Redox regulation of PEP activity during seedling establishment in Arabidopsis thaliana” (Nature Communications, 2018).
Each block holds one molecule with its values, some of them ahead of it.

Legend:
[1] = biological target: PRIN2 in isolated chloroplasts of a 35S:PRIN2 line (Arabidopsis thaliana) (UniProt Q9XIK0); assay: non-reducing SDS-PAGE with immunoblot; protein extracts of isolated chloroplasts (35S:PRIN2 line; WT plants kept in light or 48 h in the dark) or of Arabidopsis cell culture (dark, light, light with 10 mM H2O2, DCMU, MV, high light), nonreducing conditions, anti-PRIN2 polyclonal antibody
[2] = biological target: PRIN2 Cys115Ser (C2S) in transgenic prin2-2 + C2S lines (Arabidopsis thaliana) (UniProt Q9XIK0); assay: SDS-PAGE with immunoblot; protein of transgenic prin2-2 lines with PRIN2 variants (Supplementary Figs. 4c and 5); conditions not shown
[3] = biological target: recombinant Arabidopsis PRIN2 WT (PLASTID REDOX …2), without the transit peptide (Arabidopsis thaliana) (UniProt Q9XIK0); assay: non-reducing SDS-PAGE; purified recombinant protein (1 ug), untreated (air), with 5 mM DTT or other DTT concentrations, or with 2 mM H2O2; 15% polyacrylamide, nonreducing conditions, Coomassie Brilliant Blue; disulfide-linked dimer to monomers
[4] = biological target: endogenous PRIN2 of Arabidopsis (Arabidopsis thaliana (endogenous in Col-0 plants and cell culture)) (UniProt Q9XIK0); assay: non-reducing SDS-PAGE with immunoblot; protein extracts of isolated chloroplasts (35S:PRIN2 line; WT plants kept in light or 48 h in the dark) or of Arabidopsis cell culture (dark, light, light with 10 mM H2O2, DCMU, MV, high light), nonreducing conditions, anti-PRIN2 polyclonal antibody
[5] = biological target: T1, PRIN2 (PLASTID REDOX INSENSITIVE2), recombinant without transit peptide (Arabidopsis thaliana) (UniProt Q9XIK0); assay: competition EMSA; conditions: EMSA with 3 ug PRIN2 per reaction; buffer, salt, pH and temperature not given in the material
T1 sequence: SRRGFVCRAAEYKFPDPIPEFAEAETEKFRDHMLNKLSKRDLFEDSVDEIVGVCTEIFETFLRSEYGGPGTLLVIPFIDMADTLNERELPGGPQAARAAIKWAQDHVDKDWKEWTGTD

[6] = biological target: T2, PRIN2 (PLASTID REDOX …2), recombinant without transit peptide (Arabidopsis thaliana, UniProt Q9XIK0 62-179); assay: competition EMSA; 50-fold excess over labeled ycf1; EMSA with 3 ug PRIN2 per reaction; buffer, salt, pH and temperature not given in the material; conditions: protein: recombinant, tags: His (pET-His1a), label: none, blunt
T2 sequence: T1 sequence

[7] = biological target: T2, PRIN2 (PLASTID REDOX …2), recombinant …; assay: EMSA; 3 ug protein; competed by 50-fold unlabeled ycf1; EMSA with 3 ug PRIN2 per reaction; buffer, salt, pH and temperature not given in the material; conditions: tags: His (pET-His1a), label: biotin 3' end (Biotin-14-dCTP), blunt
[8] = biological target: the molecule itself; assay: SDS-PAGE with immunoblot; input protein extracts of protoplasts transformed with PRIN2-cMyc or TRXz-HA, probed with anti-cMyc or anti-HA; whether reducing or not is not stated

stoichiometry N [1]: 2
Molecule: PRIN2 in isolated chloroplasts of a 35S:PRIN2 line (from UniProt Q9XIK0 70-179) (natural protein)

stoichiometry N [2]: 2
Molecule: PRIN2 Cys115Ser (C2S) in transgenic prin2-2 + C2S lines (from UniProt Q9XIK0 70-179) (natural protein)

stoichiometry N [3]: 2
Molecule: recombinant Arabidopsis PRIN2 WT (PLASTID REDOX …2), without the transit peptide (from UniProt Q9XIK0 70-179) (natural protein)

stoichiometry N [4]: 2
Molecule: endogenous PRIN2 of Arabidopsis (from UniProt Q9XIK0 70-179) (natural protein)

Molecule: GAAACAGTATAACATGACTTATATAGCCATGTCAACCAATGTAAAATGGATAAGATCCTTTTAGTTTAGATTCATAAAAAATTTTTTGTAATCGATGAAATAAATTAGAAGCGAATCCACATACATAGAAATAGAATTGCTCTAGGAATATTTTTTCCAAATCATATGAATACGATTGAATACGATCCGTAGTGGGT (double strand) [psbA promoter competitor (psbA_197)]
binding [5]: binds

B1: psaA U region competitor (dsDNA)
DNA 1: TTTTTTAATTATAAAAAAGGGTCCGTTGAGCACCCTATCCAT
DNA 2: ATCCATAGGGTGCTCAACGGACCCTTTTTTATAATTAAAAAA
binding result ([6]; as printed, strands mismatch near the 3' end of strand 1 (possible misprint)): binds

B2: ycf1 promoter probe (dsDNA)
DNA 1: CCATTCATTTAATATCCCTTTGGTGTCATTGACATAAGAGAT
DNA 2: ATCTCTTATGTCAATGACACCAAAGGGATATTAAATGAATGG
binding result [7]: binds

B3: rpoB promoter competitor (dsDNA)
DNA 1: TATGGTATGCAATCGAATTGGAATATGTAATATCATAGGTGAAAATGAAATTAC
DNA 2: GTAATTTCATTTTCACCTATGATATTACATATTCCAATTCGATTGCATACCATA
binding result [6]: binds

B4: TRXz-HA (full-length Thioredoxin z fused to an HA tag) (natural protein, Arabidopsis thaliana, UniProt Q9M7X9 82-183, looked up)
chain: AQELQELVKGDRKVPLIVDFYATWCGPCILMAQELEMLAVEYESNAIIVKVDTDDEYEFARDMQVRGLPTLFFISPDPSKDAIRTEGLIPLQMMHDIIDNEM
notes: also called pRT104-TRXz-HA; source: Arabidopsis Ler suspension culture protoplasts, transiently transformed, in protein extract
stoichiometry N [8]: 2

B5: PRIN2-cMyc (full-length PRIN2 fused to a cMyc tag) (natural protein, Arabidopsis thaliana, UniProt Q9XIK0 68-179, looked up)
chain: CRAAEYKFPDPIPEFAEAETEKFRDHMLNKLSKRDLFEDSVDEIVGVCTEIFETFLRSEYGGPGTLLVIPFIDMADTLNERELPGGPQAARAAIKWAQDHVDKDWKEWTGTD
notes: also called pRT104-PRIN2-cMyc; source: Arabidopsis Ler suspension culture protoplasts, transiently transformed, in protein extract
stoichiometry N [8]: 2

B6: clpP promoter competitor (dsDNA)
DNA 1: CGAAACCCCAATTTTACGTTTCCACATCAAAGTGAAATAGAGAA
DNA 2: TTCTCTATTTCACTTTGATGTGGAAACGTAAAATTGGGGTTTCG
binding result [6]: binds
